Our source for the fold change of AR co-immunoprecipitated with CHK2 after IR against untreated cells values is PMC7338052.

This assay deals with endogenous CHK2 (human (endogenous in LNCaP)) (UniProt O96017). As to the kind of experiment: co-IP; LNCaP cells expressing wtAR, S81A or S308A for 48 hr; untreated or 6 Gy IR; endogenous CHK2 immunoprecipitated one hour after IR from 1 mg lysate; blotted for AR.
Chain of UniProt O96017 (O96017 whole entry): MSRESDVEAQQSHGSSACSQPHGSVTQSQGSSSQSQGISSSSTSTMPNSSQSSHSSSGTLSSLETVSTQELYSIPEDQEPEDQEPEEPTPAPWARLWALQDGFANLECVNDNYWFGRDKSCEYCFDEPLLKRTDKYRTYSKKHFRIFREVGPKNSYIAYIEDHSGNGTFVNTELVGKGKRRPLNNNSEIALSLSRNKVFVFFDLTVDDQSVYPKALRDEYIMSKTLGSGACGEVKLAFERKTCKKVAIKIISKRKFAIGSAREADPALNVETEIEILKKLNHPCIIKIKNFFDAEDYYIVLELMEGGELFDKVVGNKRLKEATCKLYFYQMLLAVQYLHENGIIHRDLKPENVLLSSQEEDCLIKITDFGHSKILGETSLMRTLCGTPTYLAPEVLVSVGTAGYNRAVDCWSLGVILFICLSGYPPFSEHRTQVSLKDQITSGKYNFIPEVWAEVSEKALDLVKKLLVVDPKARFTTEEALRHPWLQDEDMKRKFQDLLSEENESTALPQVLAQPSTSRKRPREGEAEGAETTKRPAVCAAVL

Consider “wtAR expressed in LNCaP cells (from UniProt P10275 1-920) (receptor)”, for which the fold change of AR co-immunoprecipitated with CHK2 after IR against untreated cells stood at 4 fold.
